In IntAct's records for PubMed 25910212:

B1: PiggyBac transposable element-derived protein 1 (Homo sapiens), Q96JS3 (parent)
chain: MYEALPGPAPENEDGLVKVKEEDPTWEQVCNSQEGSSHTQEICRLRFRHFCYQEAHGPQEALAQLRELCHQWLRPEMHTKEQIMELLVLEQFLTILPKELQPCVKTYPLESGEEAVTVLENLETGSGDTGQQASVYIQGQDMHPMVAEYQGVSLECQSLQLLPGITTLKCEPPQRPQGNPQEVSGPVPHGSAHLQEKNPRDKAVVPVFNPVRSQTLVKTEEETAQAVAAEKWSHLSLTRRNLCGNSAQETVMSLSPMTEEIVTKDRLFKAKQETSEEMEQSGEASGKPNRECAPQIPCSTPIATERTVAHLNTLKDRHPGDLWARMHISSLEYAAGDITRKGRKKDKARVSELLQGLSFSGDSDVEKDNEPEIQPAQKKLKVSCFPEKSWTKRDIKPNFPSWSALDSGLLNLKSEKLNPVELFELFFDDETFNLIVNETNNYASQKNVSLEVTVQEMRCVFGVLLLSGFMRHPRREMYWEVSDTDQNLVRDAIRRDRFELIFSNLHFADNGHLDQKDKFTKLRPLIKQMNKNFLLYAPLEEYYCFDKSMCECFDSDQFLNGKPIRIGYKIWCGTTTQGYLVWFEPYQEESTMKVDEDPDLGLGGNLVMNFADVLLERGQYPYHLCFDSFFTSVKLLSALKKKGVRATGTIRENRTEKCPLMNVEHMKKMKRGYFDFRIEENNEIILCRWYGDGIISLCSNAVGIEPVNEVSCCDADNEEIPQISQPSIVKVYDECKEGVAKMDQIISKYRVRIRSKKWYSILVSYMIDVAMNNAWQLHRACNPGASLDPLDFRRFVAHFYLEHNAHLSD
partner: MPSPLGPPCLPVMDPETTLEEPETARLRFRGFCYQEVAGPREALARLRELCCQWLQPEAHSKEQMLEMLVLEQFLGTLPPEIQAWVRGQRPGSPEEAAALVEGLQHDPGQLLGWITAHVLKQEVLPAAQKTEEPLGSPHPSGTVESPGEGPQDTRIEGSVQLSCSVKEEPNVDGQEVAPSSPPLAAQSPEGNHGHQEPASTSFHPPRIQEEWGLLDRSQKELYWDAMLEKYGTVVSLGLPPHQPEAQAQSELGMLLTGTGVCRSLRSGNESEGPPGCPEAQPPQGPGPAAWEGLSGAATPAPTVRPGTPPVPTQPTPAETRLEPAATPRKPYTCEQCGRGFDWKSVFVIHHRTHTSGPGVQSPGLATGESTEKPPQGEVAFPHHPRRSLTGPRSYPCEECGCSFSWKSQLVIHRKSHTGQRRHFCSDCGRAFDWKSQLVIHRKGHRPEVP
B2: Adenosylhomocysteinase (Homo sapiens), P23526 (parent)
chain: MSDKLPYKVADIGLAAWGRKALDIAENEMPGLMRMRERYSASKPLKGARIAGCLHMTVETAVLIETLVTLGAEVQWSSCNIFSTQDHAAAAIAKAGIPVYAWKGETDEEYLWCIEQTLYFKDGPLNMILDDGGDLTNLIHTKYPQLLPGIRGISEETTTGVHNLYKMMANGILKVPAINVNDSVTKSKFDNLYGCRESLIDGIKRATDVMIAGKVAVVAGYGDVGKGCAQALRGFGARVIITEIDPINALQAAMEGYEVTTMDEACQEGNIFVTTTGCIDIILGRHFEQMKDDAIVCNIGHFDVEIDVKWLNENAVEKVNIKPQVDRYRLKNGRRIILLAEGRLVNLGCAMGHPSFVMSNSFTNQVMAQIELWTHPDKYPVGVHFLPKKLDEAVAEAHLGKLNVKLTKLTEKQAQYLGMSCDGPFKPDHYRY
partner: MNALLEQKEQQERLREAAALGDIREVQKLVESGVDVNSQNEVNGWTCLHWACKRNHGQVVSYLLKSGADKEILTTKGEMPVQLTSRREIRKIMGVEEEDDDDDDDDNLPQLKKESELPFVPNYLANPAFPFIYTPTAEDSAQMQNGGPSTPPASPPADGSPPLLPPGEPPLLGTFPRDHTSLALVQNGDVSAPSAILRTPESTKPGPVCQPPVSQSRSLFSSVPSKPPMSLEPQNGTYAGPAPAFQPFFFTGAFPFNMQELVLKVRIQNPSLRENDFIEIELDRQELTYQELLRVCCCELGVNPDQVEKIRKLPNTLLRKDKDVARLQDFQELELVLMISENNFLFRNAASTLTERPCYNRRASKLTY
B3: EF-hand domain-containing protein 1 (Homo sapiens), Q5JVL4 (parent)
chain: MVSNPVHGLPFLPGTSFKDSTKTAFHRSQTLSYRNGYAIVRRPTVGIGGDRLQFNQLSQAELDELASKAPVLTYGQPKQAPPADFIPAHVAFDKKVLKFDAYFQEDVPMSTEEQYRIRQVNIYYYLEDDSMSVIEPVVENSGILQGKLIKRQRLAKNDRGDHYHWKDLNRGINITIYGKTFRVVDCDQFTQVFLESQGIELNPPEKMALDPYTELRKQPLRKYVTPSDFDQLKQFLTFDKQVLRFYAIWDDTDSMYGECRTYIIHYYLMDDTVEIREVHERNDGRDPFPLLMNRQRVPKVLVENAKNFPQCVLEISDQEVLEWYTAKDFIVGKSLTILGRTFFIYDCDPFTRRYYKEKFGITDLPRIDVSKREPPPVKQELPPYNGFGLVEDSAQNCFALIPKAPKKDVIKMLVNDNKVLRYLAVLESPIPEDKDRRFVFSYFLATDMISIFEPPVRNSGIIGGKYLGRTKVVKPYSTVDNPVYYGPSDFFIGAVIEVFGHRFIILDTDEYVLKYMESNAAQYSPEALASIQNHVRKREAPAPEAESKQTEKDPGVQELEALIDTIQKQLKDHSCKDNIREAFQIYDKEASGYVDRDMFFKICESLNVPVDDSLVKELIRMCSHGEGKINYYNFVRAFSN
partner: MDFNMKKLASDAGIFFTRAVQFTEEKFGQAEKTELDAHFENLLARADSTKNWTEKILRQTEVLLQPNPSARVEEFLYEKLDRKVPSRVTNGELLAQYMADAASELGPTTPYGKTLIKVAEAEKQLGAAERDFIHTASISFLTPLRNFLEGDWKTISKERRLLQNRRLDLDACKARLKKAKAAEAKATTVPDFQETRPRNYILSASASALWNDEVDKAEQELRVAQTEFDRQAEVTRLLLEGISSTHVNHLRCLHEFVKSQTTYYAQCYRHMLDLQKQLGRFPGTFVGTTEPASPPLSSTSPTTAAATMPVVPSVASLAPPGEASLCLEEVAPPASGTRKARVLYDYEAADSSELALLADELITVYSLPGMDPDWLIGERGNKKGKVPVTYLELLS
B4: ATP synthase mitochondrial F1 complex assembly factor 2 (Homo sapiens), Q8N5M1 (parent)
chain: MWRSCLRLRDGGRRLLNRPAGGPSASMSPGPTIPSPARAYAPPTERKRFYQNVSITQGEGGFEINLDHRKLKTPQAKLFTVPSEALAIAVATEWDSQQDTIKYYTMHLTTLCNTSLDNPTQRNKDQLIRAAVKFLDTDTICYRVEEPETLVELQRNEWDPIIEWAEKRYGVEISSSTSIMGPSIPAKTREVLVSHLASYNTWALQGIEFVAAQLKSMVLTLGLIDLRLTVEQAVLLSRLEEEYQIQKWGNIEWAHDYELQELRARTAAGTLFIHLCSESTTVKHKLLKE
partner: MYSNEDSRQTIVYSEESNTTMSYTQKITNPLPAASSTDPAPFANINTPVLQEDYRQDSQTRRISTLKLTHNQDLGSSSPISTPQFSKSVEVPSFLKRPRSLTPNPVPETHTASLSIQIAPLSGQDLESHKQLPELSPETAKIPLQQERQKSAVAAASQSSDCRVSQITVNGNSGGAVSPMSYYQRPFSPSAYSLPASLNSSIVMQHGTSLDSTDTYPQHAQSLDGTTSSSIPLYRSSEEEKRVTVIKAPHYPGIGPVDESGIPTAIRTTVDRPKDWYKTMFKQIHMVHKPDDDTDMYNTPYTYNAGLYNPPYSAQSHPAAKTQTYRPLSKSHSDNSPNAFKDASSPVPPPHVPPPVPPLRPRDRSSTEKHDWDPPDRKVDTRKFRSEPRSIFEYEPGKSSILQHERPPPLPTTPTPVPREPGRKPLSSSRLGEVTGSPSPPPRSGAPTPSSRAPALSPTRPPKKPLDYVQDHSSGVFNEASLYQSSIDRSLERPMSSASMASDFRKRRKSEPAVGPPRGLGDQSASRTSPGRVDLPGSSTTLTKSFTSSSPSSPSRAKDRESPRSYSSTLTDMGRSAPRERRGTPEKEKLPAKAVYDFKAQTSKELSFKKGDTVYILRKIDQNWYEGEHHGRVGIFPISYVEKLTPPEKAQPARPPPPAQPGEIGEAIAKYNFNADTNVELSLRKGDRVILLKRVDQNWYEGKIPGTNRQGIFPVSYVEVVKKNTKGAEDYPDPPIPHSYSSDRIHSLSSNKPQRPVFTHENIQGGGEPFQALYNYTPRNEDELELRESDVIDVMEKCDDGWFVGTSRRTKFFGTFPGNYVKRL

Variants of: B1
Settings: with zn446_human ZNF446, Q9NWS9

Question: With I678V as the variant, how does the “effect of a mutation on the interaction” value read?
Answer: with no effect

Variants of: B2
Settings: with anr40_human ANKRD40, Q6AI12

Question: For A89V, which “effect of a mutation on the interaction” value is on record?
Answer: disrupting interaction strength

Question: With D86G as the variant, how does the “effect of a mutation on the interaction” value read?
Answer: with no effect

Question: For Y143C, which “effect of a mutation on the interaction” value is on record?
Answer: with no effect

Variants of: B3
Settings: with shlb2_human SH3GLB2, Q9NR46

Question: How did the “effect of a mutation on the interaction” value turn out when R159W was run?
Answer: with no effect

Question: How did the “effect of a mutation on the interaction” value turn out when T508R was run?
Answer: with no effect

Question: R221H was tested. Which “effect of a mutation on the interaction” value did it give?
Answer: disrupting interaction strength

Question: How did the “effect of a mutation on the interaction” value turn out when M448T was run?
Answer: with no effect

Question: Which “effect of a mutation on the interaction” value does the source give for P77T here?
Answer: disrupting interaction strength

Question: How did the “effect of a mutation on the interaction” value turn out when A394S was run?
Answer: disrupting interaction strength

Variants of: B4
Settings: with SORBS2, O94875-10

Question: For W94R, which “effect of a mutation on the interaction” value is on record?
Answer: disrupting interaction strength
